Assay results as given in publication PMC8924901 (Journal of molecular biology, 2021).

Biological target: T1, rat PLCγ1 isolated cSH2 domain (H663-E759) (rat, UniProt P10686 663-759)
T1 sequence (looked up): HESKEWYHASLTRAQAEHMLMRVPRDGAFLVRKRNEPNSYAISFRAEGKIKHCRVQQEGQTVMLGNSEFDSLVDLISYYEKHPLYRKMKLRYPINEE
Assay: NMR titration

B1: rat PLCγ1 isolated split PH (sPH) domain (D485-N529/N865-R936 with a C-terminal 6X-His tag) (domain or fragment, UniProt P10686 485-529, looked up)
chain: DISNSIKNGILYLEDPVNHEWYPHYFVLTSSKIYYSEETSSDQGNNSPLGDLLRGVLDVPACQIAIRPEGKNNRLFVFSISMPSVAQWSLDVAADSQEELQDWVKKIREVAQTADAR
binding result: binds
